Holding throughout (details): EMSA/footprinting in LrpB binding buffer (ref. 27); composition, pH and temperature not given
(In general: In EMSA bound probe runs differently from free probe, usually more slowly.)

Data set [1] addresses T1, Ss-LrpB (Sulfolobus solfataricus P2?) (UniProt Q7LX67).
T1 sequence: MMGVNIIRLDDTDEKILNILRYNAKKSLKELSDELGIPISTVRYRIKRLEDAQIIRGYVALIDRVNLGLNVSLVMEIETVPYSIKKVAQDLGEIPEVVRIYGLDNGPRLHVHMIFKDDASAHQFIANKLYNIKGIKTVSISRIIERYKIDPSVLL
In words: EMSA.

Data set [2] deals with T1, Ss-LrpB (Sulfolobus solfataricus P2?). Nature of the data set: in-gel Cu-OP footprinting.
Data set [3] has as its system Ss-LrpB (Sulfolobus solfataricus P2?). Nature of the data set: EMSA.

As usually defined, the Kd is the concentration at which binding is half-saturated. A higher Kd goes with weaker binding.

As for “CCTTTACTCTTCATGCGACCAATTTTAGTTGTAATTAATTTAACAATTTCTGGTCGCAAGGATTTTATGTTAAATTGAAACATTGGGTATCATTTATAAACGTTCAATTATTATAGAAAGATTCGTTTCGGTCGCATTGAGACTCGAACTTTCACACTTTTAAACAACTTCATAAAAACGAAGTTTGAAGTTCTCTATTTGATAATAATGTTTCACTGATTTCGTATCATATCGAAAAATATTTTTTATCTCTTATCGCTCTCCTTTCATC (double strand) [CRISPR4 (CRISPR B leader) fragment]”, the Kd in data set [1] turned out to be 63 nM. The binding result in data set [2] is “binds”. On to “AGTATCTCGTTAATAACATCGTCTTTGTTACCTTCAAAGAACTCTGCATATATTATTTCGTCGTAAAGAATTAGATATCCTTTTGCACTAGTCAGCAGAGAATATTTATATCCTCTACATCCCTCACAATAACCTCTAACCTCTTTAACTAGTAAATGTTCAATCACAGATAGTTTAATATTTCCTTTTTCAATTATTTCTATATCATTATCTTTTTTAACTGATAATCTCTTAGCTAAATAATAAAGTGCGACCTGA (double strand) [Ssot36 fragment]”, for which the binding result in data set [1] was “no binding”. With “CGCATTAGAAGTAAAGAACGTAAATACTATGGCAGGAGTGTTATTACCAGCAAGGAACTTGGCATTAGCTAGGGAAATGGGGGCCGATGCGGTAGTTTCAGCTTGTCCTGGTTGTCACTATTCCTTATCTAGAACTCAATATTATCTGACTAAATACCCCAAATTAAGAGAAAAGACTAATATGTATTTAGAAAAAATGGGTACTAAGAATTATGATCTAAAGTTAATGCTAGTTCACGCTGTTGAATATATTTACAATA (double strand) [Sso1135 fragment]”, the binding result in data set [1] is recorded as “binds”. Consider “ATATGTATATTCAAGCCATTTAGATGAGATAAGGAAAAATAAAGAATTCTATGATATGATTGCAGAGATACTACAAAGGTATTACAAAAAAATAGGCATAGAGAATGTGAATCAGTTGATACTAACTACTATAAAATAGTTCGTATGTCGAACCTTTCTTTACCGAATTCATTATATATCC (double strand) [Sso6904 fragment]”, for which the binding entry in data set [1] is recorded as “no binding”. Turning to “TGGAGAAGATGACGAAATGGTATTAAAGGAACATTCAATTACCTTATGTGATACAATAAAAAGGATGGGAGGGGATTGCGAGTTGCATATAATTCCGAAAATGAAGCACACACCTTTAGGGCAACAGTATCAAACAATTTGGAGTATAATTGAGGATTGGATAAAGAGGAATAGTTCTAGTTTTTAACCAGTTTGTGCCCAGTTCTCATACCTCATGAGTTCATTTCTACCCTTATCTTTAGCCACAATGTCTAGA (double strand) [Sso1433 fragment]”, the binding result in data set [1] is listed as “binds”. For the substance CRISPR4 (CRISPR B leader) fragment, the equilibrium dissociation constant (Kd) in data set [3] amounted to 63 nM. In data set [3], Sso0049 Box 1 fragment returned a Kd of 150 nM.

“AATCTTTCATTCCTCCTCTTATATGGATTATTACTGGTTTGTTTTCTTTTTCGGCTATTTGCAAAAATTTCTCCAGAACTTCTATTTGTTTTTTCCTAAGATCCTCGTCTTTTATCCAAAAGTAATCTAAACCGACTTCACTTATTATCTTCCCATACCTAGTTAATTCCAAACACTTATCAATCTCATTAACCTTATCCTTTACAAATTCTGGATG (double strand) [Sso0046 fragment]”: the binding result in data set [1] was “no binding”.
